# Assay: soluble on expression in E. coli; label from the status in PepcDB or PDB records
row,Sequence,soluble on expression in E. coli
1,MGSDKIHHHHHHMTRSEAQGRLTGLAPVSVIDIGSNSVRLVVYEGLSRAPAVLFNEKVLCGLGKGLALTGRMHEEGVTRALMALRRFHVLSEQAQAQKLYVLATAAAREAENGPDFIREAEAILGCEIEVLSGEKEALYSAYGVISGFYQPDGIAGDLGGGSLELIDIKDKSCGEGITLPLGGLRLSEQSDGSLEKAATIARKHVKSFAKLLAAGEGRTFYAVGGTWRNIAKLHMEISGYPLHMMQGYELPLEEMLNFLEEVIVSRDSKDPAWQAVSKNRRSLLPFGAIAMREVLRAMKPAKIAFSAQGVREGYLYSLLTEAERESDPLLVAADELAILRARSPEHARELADWSGRTFPVFGIDETEEESRYRQAACLLADISWRAHPDYRGLQALNIIAHSSFVAITHPGRAYIALANYYRFEGLNDNGTTEPLAAMAGERLQELGKLLGGLLRVVYLFSASMPGVVDHLKFRKSDNPDIDLEFVVPHDYCDFAGERLDGRLQQLAKLTGKRLAFVFE,not soluble
2,MIYPLPAILVSCGKDESEYNIITVAWTGTICTNPPMCYISVRPERHSYDIIKKNMEFVINLTTKDMAFPTDWCGVRSGRNYRKFEEMKLTPGRCTVVSAPLIEESPLCIECRVKEIVSLGSHDMFIADVVNVRADDRNLNPETGKFELAEANPLVYVHGGYYDLGEKIGKFGWSVEKKK,not soluble
3,MGIRPSADEQDQCFMTRITIVTDAWHPQVNGVVRSIENTNTELARLGVDVRMVTPQSFYSIPCPTYPEIRLSVAGYRRVAVEIEKSQPSFVHIATEGPLGFMARRWCVKNHMRFSTSYHTRFPEYVAARFPVPESWLYAFVRWFHNGGNTCMVATPSLETELEARGVRNLKRWSRGIDAELFHPRTKTKLPFDLPRPIFMTVGRVAVEKNLPEFLDLDLPGSKIVIGDGPARYELQEKYPDVLFTGIKTGEELADAYAQADVFVFPSKTDTFGNTILEALASGVPVAAFPVTGPIDILGGNPAAGALDNNLRDACLAALHCSPQAALALSKSYSWEKASRQFLDNVIHAAGKSLPLLSRSRLAAAALEHHHHHH,not soluble
4,MSGVSLGRGQNANAAYLDNIKELGFKLVRRPTGGGALLHPEDNEITYSVVLSASNTIAKLSVDESAVEIAKGILYTLQILGENVDIRGLGDMKKHDLCYLRSGSSDVIVAGRKISGSAQVRDDKALLQHGTLLLRFEPEI,soluble
5,MRALRRGKGITLKQLAKALNKNISRGEAKNTESQIGNWERGERNPNYLEVKKLADYFDVSIDYLVGRYNNDQVDLAKAMITSSKLTYNDTPLDNNDKYEILQLISGYLHARGRRSTGDLININHQESLDLFNNQNDF,not soluble
6,MSLRSLTHIAKIELPPVRRVTYVKHYSIQPANLEFNAEGTPVSRDFDDVYFSNDNGLEETRYVFLGGNQLEARFPEHPHPLFVVAESGFGTGLNFLTLWQAFDQFREAHPQAQLQRLHFISFEKFPLTRADLALAHQHWPELAPWAEQLQAQWPMPLPGCHRLLLDEGRVTLDLWFGDINELISQLDDSLNQKVDAWFLDGFAPAKNPDMWTQNLFNAMARLARPGGTLATFTSAGFVRRGLQEAGFTMQKRKGFGRKREMLCGVMEQTLPLPCSTPWFNRTGSSKREVAIIGGGIASALLSLALLRRGWQVTLYCADEAPALGASGNRQGALYPLLSKHDEALNRFFSNGFTFARRLYDSLPVKFDHDWCGVTQLGWDEKSQHKIAQMLSMDLPEELAVAVEANAVEQITGVTTNCSGITYPQGGWLCPAELTRNVLELAQQQGLQIYYQYQLQDLSRKDDCWLLTFAGDQQATHSVVVLANGHQISRFSQTSSLPVYSVAGQVSHIPTTPELAKLKQVLCYDGYLTPQNPANQHHCIGASYHRGSEETAYSEDNQQQNRQRLIDCFPHAQWAKTVDVSKKEARCGVRCATRDHLPMVGNVPDYEATLVEYASLAEQKDKAVSAPVFDDLFMFAALGSRGLCSAPLCAEILAAQMSDEPIPMDASTLAALNPNRLWVRKLLKGKAVKAGEGHHHHHH,soluble
7,SCTLGRLVSPGPCPRPYLVITEQPKQRGMRFRYECEGRSAGSILGESSTEASKTQPAIELRDCGGLREVEVTACLVWKDWPHRVHPHSLVGKDCTDGVCRVRLRPHVSPRHSFNNLGIQCVRKKEIEAAIERKIQLGIDPYNAGSLKNHQEVDMNVVRICFQASYRDQQGHLHRMDPILSEPVYDKKSTNTSELRICRINKESGPCTGGEELYLLCDKVQKEDISVVFSTASWEGRADFSQADVHRQIAIVFKTPPYEDLEISEPVTVNVFLQRLTDGVCSEPLPFTYLPRDHDSY,soluble
8,MNAADDKTIVREYFNSTGFDRWKRIYGDGEVNKVQLDIRNGHQQTVDSVIGWLKNDGNLAELSICDAGCGVGSLSIPLATEGAKVYASDISEKMVEEGKQRALETLGNAENPTFAVQDLESLSGSYHTVICLDVLIHYPQEKADEMISHLCSLAQSRIILSFAPKTCALTLLKKIGSFFPGPSKTTRAYLHREADVIKILESNGFAIQRKEFTKTRFYFSRILEATRSLEHHHHHH,soluble
9,GPLGSGDVQVTEDAVRRYLTRKPMTTKDLLKKFQTKKTGLSSEQTVNVLAQILKRLNPERKMINDKMHFSLKE,soluble
10,MSLKCETERSKTWNNFGNGIPCVLGIDEAGRGPVLGPMVYAAAISPLDQNVELKNLGVDDSKALNEAKREEIFNKMNEDEDIQQIIAYALRCLSPELISCSMLKRQKYSLNEVSHEAAITLIRDALACNVNVVEIKVDTVGPKATYQAKLEKLFPGISICVTEKADSLFPIVSAASIAAKVTRDSRLRNWQFREKNIKVPDAGYGSGYPGDPNTKKFLQLSVEPVFGFCSLVRSSWKTASTIVEKRCVPGSWEDDEEEGKSQSKRMTSWMVPKNETEVVPKRNVYFKERHMSNILTF,not soluble
11,NLSVYNVQATNIPPKETLVYTKQTQTT,soluble
12,MGHHHHHHGGHMSLSTKAKQQSSQQMTRGFEPYQETKGEEYMSERMRAHFTAILNKWKQELMEEVDRTVHHMQDEAANFPDPADRASQEEEFSLELRARDRERKLIKKIDETLQLIEDEEYGWCDSCGVEIGIRRLEARPTATLCIDCKTLAEIREKQLGSEGGS,soluble
13,GDDNSYSLGDIWIAVATVVPEGNNVYYLRLDDGDKLWPAATNYPNYQPKPNQRALVNFTILADSTQSNLGGFSHYIKVNAIHNILTKSIAKNEGAANDSIYGTDPVSIYNNNMWIGDGYLNIYFETLWGGKTAHFINLIQPDAENDPYTLEFRHNAYDDPQYTIGAGRVAFNLSSLPDTKGETVDLVVNYWTSEGKQAYKLKYNSDKTKMEDTSQGYTNDSISNITDMK,soluble
14,GPGSMPNPYTGNYEAARFVEYYASAQMLRDSVHRLHTVSIQRHMDALRRAESAHQKHTCPAAPIRSRQQIEEHANRMVYQEMLRRQKNMTKLAWDVYKPVPPKRLSSEELRSLVKRMYEQQMQNMTERKKEARQRQVVLSDEVLAETRRGRRMLRQRDIHRSLESGWRTPSSRAKYNDGKLLLVSGGNVKSTSKERPPDLGYLARLAKPLRPTERVNKC,not soluble
15,MVLILNGPNLNLLGRREPEVYGRTTLEELEALCEAWGAELGLGVVFRQTNYEGQLIEWVQQAHQEGFLAIVLNPGALTHYSYALLDAIRAQPLPVVEVHLTNLHAREEFRRHSVTAPACRGIVSGFGPLSYKLALVYLAETLEVGGEGF,soluble
16,MGSDKIHHHHHHGTISHSVEPGDNLYNLAARYMGNPHAWPDIQKLNHISNPHRLKPGTSLLIPKVSSTVTASFVHGEAWLVDDAGNTIKRIAHGDQLNEGDIVRTGQHSYLSLEFADHSVARILSNTHVRLDRIKESGLVPQGQRVIYLEQGNMDVSVTPAPKCNSQHFKVITPQAVAAVRGTRFSVGVGSVSATSVTQGKVEMQPPQPGKSRSGKMLQAGQGIAASGNGLGEVQPLLAAPDLSQLPSMLPEPELLQFDWPAVNGGSEYQYRIAQDEGMEQVLWNAASYSASATLPSLQDGEYLLAVRALDSYGIPGYEAQHRFIIHSHPSSPWLLSPQQGQPIDGNGILRCTPVEGAQGYHLQIATDDEFRELVVDSGPLDRCQYQLASLAEGDYYWRVASVNAEEEGRLGPYSQPASLTVSQDAHTLPIIAGEAYWTSTLQDARYIAQISRSPRFDTLVAEQELDSPRINIQSLPAGRYYVRLATRLENDTGPFSDARIIEVEHEDNGMDRTWFDKPRS,not soluble

# Reference: the DeepSol protein solubility set
